T1: Xrt-lin28a (Xenopus tropicalis, UniProt Q5EB47 34-177)
T1 sequence: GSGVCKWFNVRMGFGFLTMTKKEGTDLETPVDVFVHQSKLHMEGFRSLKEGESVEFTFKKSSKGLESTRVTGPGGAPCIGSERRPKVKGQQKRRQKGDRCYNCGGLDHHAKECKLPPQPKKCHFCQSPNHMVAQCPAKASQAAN


What was measured:
Xrt-lin28a [1] = target: T1, Xrt-lin28a; assay: EMSA; conditions: Bmax 1.017; n=3; 60 mM KCl, 10 mM HEPES pH 7.6, 3 mM MgCl2, 5% glycerol, 1 mM DTT, 5 ug/ul heparin, 150 ng yeast total RNA; 30 min room temperature; 10% native PAGE
Xrt-lin28a [2] = target: T1, Xrt-lin28a; assay: EMSA; Bmax 0.962; n=3; 60 mM KCl, 10 mM HEPES pH 7.6, 3 mM MgCl2, 5% glycerol, 1 mM DTT, 5 ug/ul heparin, 150 ng yeast total RNA; 30 min room temperature; 10% native PAGE; conditions: protein: recombinant

| Molecule | Kd (Xrt-lin28a [1]) | Kd (Xrt-lin28a [2]) |
| --- | --- | --- |
| L-let-7g | 314 nM | – |
| UGCAAUUUUAUUUAGUUUGGUAGGAGAAAAAUUGC (structured_RNA) [L-mir-363] | – | 448 nM |

— publication PMC4982076, “lin28 proteins promote expression of 17∼92 family miRNAs during amphibian development”
